In publication PMC6542726 (Molecular psychiatry, 2018):

B1: ankyrin-G fragment of 26 amino acids (residues 1985-2010) (domain or fragment)
chain: PEDDWTEFSSEEIREARQAAASHAPS

Legend:
[1] = molecular target: GABAA receptor associated protein (GABARAP) (mouse) (UniProt Q9DCD6); test: ITC
[2] = molecular target: GABAA receptor associated protein (GABARAP) (mouse, UniProt Q9DCD6 1-117); test: ITC
Sequence of GABAA receptor associated protein (GABARAP) (Q9DCD6 whole entry): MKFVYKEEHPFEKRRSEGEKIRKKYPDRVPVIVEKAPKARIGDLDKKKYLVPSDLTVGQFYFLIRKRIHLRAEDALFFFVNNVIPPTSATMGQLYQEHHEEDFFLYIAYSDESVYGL

Sequence of GABAA receptor associated protein (GABARAP) (mouse) (Q9DCD6 whole entry): as above

Row | Molecule | Kd [1] [µM] | Kd [2] [µM]
1 | ankyrin-G W1989R (from UniProt O70511 1985-2010) (domain or fragment) | 11 | 
2 | B1 |  | 0.0029
